Results from patent publication US20250243243A1, “DISRUPTION OF SONIC HEDGEHOG-SURF4 INTERACTION FOR CANCER TREATMENT” (The Hong Kong University of Science and Technology, priority 2022, published 2025).

How the values were obtained:
IGF2-HA (human) = IGF2-HA (human) (UniProt P01344); experiment: anti-HA immunoprecipitation from HEK293T lysate, label-free quantitative mass spectrometry; 2 unique peptides; untransfected Control Group printed 247624.8556
ShhN^1-198-HA (mouse) [1] = target: ShhN^1-198-HA (mouse) (UniProt Q62226); experiment: as above
Chain of ShhN^1-198-HA (mouse) (Q62226 25-198): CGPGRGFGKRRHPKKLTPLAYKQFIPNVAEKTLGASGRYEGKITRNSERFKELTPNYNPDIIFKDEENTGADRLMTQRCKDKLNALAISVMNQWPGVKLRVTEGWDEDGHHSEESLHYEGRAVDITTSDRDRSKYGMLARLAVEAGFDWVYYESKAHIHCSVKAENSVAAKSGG

ShhN^1-198-HA (mouse) [2] = target: ShhN^1-198-HA (mouse) (UniProt Q62226); experiment: anti-HA immunoprecipitation from HEK293T lysate, label-free quantitative mass spectrometry; ratio of the ShhN-HA group to the IGF2-HA group

abundance in The IGF2 Group (IGF2-HA (human)): 78500
abundance in The ShhN Group (ShhN^1-198-HA (mouse) [1]): 275000
Abundance Ratio ShhN:IGF2 (ShhN^1-198-HA (mouse) [2]): 3.5
B1: CLINT1 (protein, human (HEK293T cells), UniProt Q14677 1-625, looked up)
single chain: MLNMWKVRELVDKATNVVMNYSEIESKVREATNDDPWGPSGQLMGEIAKATFMYEQFPELMNMLWSRMLKDNKKNWRRVYKSLLLLAYLIRNGSERVVTSAREHIYDLRSLENYHFVDEHGKDQGINIRQKVKELVEFAQDDDRLREERKKAKKNKDKYVGVSSDSVGGFRYSERYDPEPKSKWDEEWDKNKSAFPFSDKLGELSDKIGSTIDDTISKFRRKDREDSPERCSDSDEEKKARRGRSPKGEFKDEEETVTTKHIHITQATETTTTRHKRTANPSKTIDLGAAAHYTGDKASPDQNASTHTPQSSVKTSVPSSKSSGDLVDLFDGTSQSTGGSADLFGGFADFGSAAASGSFPSQVTATSGNGDFGDWSAFNQAPSGPVASSGEFFGSASQPAVELVSGSQSALGPPPAASNSSDLFDLMGSSQATMTSSQSMNFSMMSTNTVGLGLPMSRSQNTDMVQKSVSKTLPSTWSDPSVNISLDNLLPGMQPSKPQQPSLNTMIQQQNMQQPMNVMTQSFGAVNLSSPSNMLPVRPQTNALIGGPMPMSMPNVMTGTMGMAPLGNTPMMNQSMMGMNMNIGMSAAGMGLTGTMGMGMPNIAMTSGTVQPKQDAFANFANFSK
